{"source": "patent US7572771", "key": {"[1]": {"target": "human ABCA1 transporter (ATP-binding cassette transporter A1) (human) (UniProt O95477)", "sequence (O95477 whole entry)": "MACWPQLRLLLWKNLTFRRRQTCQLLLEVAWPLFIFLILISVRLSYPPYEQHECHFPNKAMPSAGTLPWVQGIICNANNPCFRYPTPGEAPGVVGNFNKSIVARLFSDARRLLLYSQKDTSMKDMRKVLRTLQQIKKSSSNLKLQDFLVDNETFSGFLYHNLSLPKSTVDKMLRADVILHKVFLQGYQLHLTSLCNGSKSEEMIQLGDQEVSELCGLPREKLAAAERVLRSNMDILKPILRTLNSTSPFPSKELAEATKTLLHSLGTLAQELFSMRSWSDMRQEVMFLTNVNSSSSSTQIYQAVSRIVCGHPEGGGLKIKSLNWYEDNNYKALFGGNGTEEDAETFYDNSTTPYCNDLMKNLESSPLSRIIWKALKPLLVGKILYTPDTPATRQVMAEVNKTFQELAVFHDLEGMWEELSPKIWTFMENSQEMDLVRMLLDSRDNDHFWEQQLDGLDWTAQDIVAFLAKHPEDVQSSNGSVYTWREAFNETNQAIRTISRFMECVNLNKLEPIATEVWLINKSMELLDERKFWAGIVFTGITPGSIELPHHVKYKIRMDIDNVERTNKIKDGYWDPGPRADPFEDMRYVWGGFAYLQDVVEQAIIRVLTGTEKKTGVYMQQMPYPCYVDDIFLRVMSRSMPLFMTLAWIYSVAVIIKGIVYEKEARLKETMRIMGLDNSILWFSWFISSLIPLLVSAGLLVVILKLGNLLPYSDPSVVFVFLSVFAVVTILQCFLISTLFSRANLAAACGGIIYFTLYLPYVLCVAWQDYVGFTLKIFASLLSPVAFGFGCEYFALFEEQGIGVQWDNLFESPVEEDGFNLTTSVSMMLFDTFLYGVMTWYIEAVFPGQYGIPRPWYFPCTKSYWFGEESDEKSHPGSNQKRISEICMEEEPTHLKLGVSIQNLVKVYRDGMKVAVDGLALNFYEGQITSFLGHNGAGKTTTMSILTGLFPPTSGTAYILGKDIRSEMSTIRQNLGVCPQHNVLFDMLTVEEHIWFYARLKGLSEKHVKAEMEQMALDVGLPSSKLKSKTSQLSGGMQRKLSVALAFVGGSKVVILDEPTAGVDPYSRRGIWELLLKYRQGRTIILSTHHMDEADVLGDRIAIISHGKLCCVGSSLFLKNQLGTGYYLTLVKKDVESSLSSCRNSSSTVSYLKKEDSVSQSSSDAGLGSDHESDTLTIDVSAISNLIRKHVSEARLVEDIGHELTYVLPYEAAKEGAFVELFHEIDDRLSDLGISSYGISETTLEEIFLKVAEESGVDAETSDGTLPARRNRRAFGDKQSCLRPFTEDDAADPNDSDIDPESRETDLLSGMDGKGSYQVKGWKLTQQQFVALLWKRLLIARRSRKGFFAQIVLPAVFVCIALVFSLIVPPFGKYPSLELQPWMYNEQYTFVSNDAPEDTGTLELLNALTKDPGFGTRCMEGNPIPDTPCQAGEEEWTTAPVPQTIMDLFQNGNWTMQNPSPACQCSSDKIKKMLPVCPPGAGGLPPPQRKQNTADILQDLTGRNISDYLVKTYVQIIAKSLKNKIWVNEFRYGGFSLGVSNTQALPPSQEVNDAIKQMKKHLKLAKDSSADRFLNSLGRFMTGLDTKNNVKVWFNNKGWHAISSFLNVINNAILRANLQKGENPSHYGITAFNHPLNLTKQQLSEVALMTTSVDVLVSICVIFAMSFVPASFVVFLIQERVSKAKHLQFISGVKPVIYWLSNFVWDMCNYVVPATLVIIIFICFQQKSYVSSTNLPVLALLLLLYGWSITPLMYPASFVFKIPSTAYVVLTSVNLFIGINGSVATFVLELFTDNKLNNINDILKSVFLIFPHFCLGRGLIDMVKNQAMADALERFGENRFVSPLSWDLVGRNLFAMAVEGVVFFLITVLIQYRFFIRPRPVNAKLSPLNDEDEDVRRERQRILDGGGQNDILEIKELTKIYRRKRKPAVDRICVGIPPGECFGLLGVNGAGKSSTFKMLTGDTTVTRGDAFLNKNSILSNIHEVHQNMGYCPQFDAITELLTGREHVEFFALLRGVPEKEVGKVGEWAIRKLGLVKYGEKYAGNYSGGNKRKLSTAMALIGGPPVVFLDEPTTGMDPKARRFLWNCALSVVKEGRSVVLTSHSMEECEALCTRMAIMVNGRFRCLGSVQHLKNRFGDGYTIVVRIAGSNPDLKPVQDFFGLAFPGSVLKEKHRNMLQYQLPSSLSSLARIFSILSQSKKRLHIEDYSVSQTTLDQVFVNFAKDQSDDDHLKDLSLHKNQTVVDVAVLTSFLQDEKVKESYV", "assay": "cell-based or functional assay"}, "[2]": {"target": "human ABCA1 transporter (ATP-binding cassette transporter A1) (human) (UniProt O95477)", "assay": "two-step sequential competition on ABCA1-transfected HeLa cells; competitor at 8 µM, tracer 125I-L-37pA"}, "[3]": {"target": "human ABCA1 transporter (ATP-binding cassette transporter A1) (human) (UniProt O95477)", "assay": "125I-L-37pA (1 µg/ml, 1 hour, 4° C.) bound to ABCA1-transfected HeLa cells, no competitor"}}, "note": "Where “and” joins values, the source holds several entries; their conditions need not be identical. Identical values can stand only once. Where no end group is shown, it is not given here."}
{"binder": "DWLKAFYDKVAEKLKEAFPDWLKAFYDKVAEKLKEAF (also: tracer form 125I-labelled with iodine monochloride)", "note": "[L-37pA peptide]", "values": [{"measurement": "cholesterol and phospholipid efflux, ABCA1 cells against control cells", "setting": "[1]", "result": "2 fold and 4 fold"}, {"measurement": "concentration at which lipid efflux begins to show saturation", "setting": "[1]", "result": 2, "unit": "µM"}, {"measurement": "percent of labeled L-37pA binding blocked", "setting": "[2]", "result": 40, "unit": "%"}, {"measurement": "cell-bound radiolabeled peptide in the absence of a competitor (pmol/mg cell protein)", "setting": "[3]", "result": 35}]}
